Reference: IntAct's records for PubMed 9845368

B1: Phytochrome B (Oryza sativa subsp. japonica (Rice)), Q10MG9 (parent)
chain: MASGSRATPTRSPSSARPAAPRHQHHHSQSSGGSTSRAGGGGGGGGGGGGGAAAAESVSKAVAQYTLDARLHAVFEQSGASGRSFDYTQSLRASPTPSSEQQIAAYLSRIQRGGHIQPFGCTLAVADDSSFRLLAYSENTADLLDLSPHHSVPSLDSSAVPPPVSLGADARLLFAPSSAVLLERAFAAREISLLNPLWIHSRVSSKPFYAILHRIDVGVVIDLEPARTEDPALSIAGAVQSQKLAVRAISRLQALPGGDVKLLCDTVVEYVRELTGYDRVMVYRFHEDEHGEVVAESRRNNLEPYIGLHYPATDIPQASRFLFRQNRVRMIADCHAAPVRVIQDPALTQPLCLVGSTLRSPHGCHAQYMANMGSIASLVMAVIISSGGDDDHNISRGSIPSAMKLWGLVVCHHTSPRCIPFPLRYACEFLMQAFGLQLNMELQLAHQLSEKHILRTQTLLCDMLLRDSPTGIVTQSPSIMDLVKCDGAALYYHGKYYPLGVTPTEVQIKDIIEWLTMCHGDSTGLSTDSLADAGYPGAAALGDAVSGMAVAYITPSDYLFWFRSHTAKEIKWGGAKHHPEDKDDGQRMHPRSSFKAFLEVVKSRSLPWENAEMDAIHSLQLILRDSFRDSAEGTSNSKAIVNGQVQLGELELRGIDELSSVAREMVRLIETATVPIFAVDTDGCINGWNAKVAELTGLSVEEAMGKSLVNDLIFKESEETVNKLLSRALRGDEDKNVEIKLKTFGPEQSKGPIFVIVNACSSRDYTKNIVGVCFVGQDVTGQKVVMDKFINIQGDYKAIVHNPNPLIPPIFASDENTCCSEWNTAMEKLTGWSRGEVVGKLLVGEVFGNCCRLKGPDALTKFMIVLHNAIGGQDCEKFPFSFFDKNGKYVQALLTANTRSRMDGEAIGAFCFLQIASPELQQAFEIQRHHEKKCYARMKELAYIYQEIKNPLNGIRFTNSLLEMTDLKDDQRQFLETSTACEKQMSKIVKDASLQSIEDGSLVLEKGEFSLGSVMNAVVSQVMIQLRERDLQLIRDIPDEIKEASAYGDQYRIQQVLCDFLLSMVRFAPAENGWVEIQVRPNIKQNSDGTDTMLFLFRFACPGEGLPPEIVQDMFSNSRWTTQEGIGLSICRKILKLMGGEVQYIRESERSFFHIVLELPQPQQAASRGTS
partner: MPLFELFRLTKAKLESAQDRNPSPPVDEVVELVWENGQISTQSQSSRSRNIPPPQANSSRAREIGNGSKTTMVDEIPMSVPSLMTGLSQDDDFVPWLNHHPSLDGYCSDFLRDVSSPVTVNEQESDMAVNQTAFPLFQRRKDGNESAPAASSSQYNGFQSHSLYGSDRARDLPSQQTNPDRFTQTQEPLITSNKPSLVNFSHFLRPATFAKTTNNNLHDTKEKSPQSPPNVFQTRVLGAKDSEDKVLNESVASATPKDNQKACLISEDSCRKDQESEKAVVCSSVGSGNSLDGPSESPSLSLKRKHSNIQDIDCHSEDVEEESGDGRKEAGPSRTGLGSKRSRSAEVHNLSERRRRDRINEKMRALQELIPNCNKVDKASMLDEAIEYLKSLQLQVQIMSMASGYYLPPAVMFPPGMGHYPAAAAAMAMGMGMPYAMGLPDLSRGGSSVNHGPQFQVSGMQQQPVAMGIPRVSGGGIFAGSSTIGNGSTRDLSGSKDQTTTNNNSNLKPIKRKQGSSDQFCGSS
B2: Phytochrome B (Arabidopsis thaliana (Mouse-ear cress)), P14713 (parent)
chain: MVSGVGGSGGGRGGGRGGEEEPSSSHTPNNRRGGEQAQSSGTKSLRPRSNTESMSKAIQQYTVDARLHAVFEQSGESGKSFDYSQSLKTTTYGSSVPEQQITAYLSRIQRGGYIQPFGCMIAVDESSFRIIGYSENAREMLGIMPQSVPTLEKPEILAMGTDVRSLFTSSSSILLERAFVAREITLLNPVWIHSKNTGKPFYAILHRIDVGVVIDLEPARTEDPALSIAGAVQSQKLAVRAISQLQALPGGDIKLLCDTVVESVRDLTGYDRVMVYKFHEDEHGEVVAESKRDDLEPYIGLHYPATDIPQASRFLFKQNRVRMIVDCNATPVLVVQDDRLTQSMCLVGSTLRAPHGCHSQYMANMGSIASLAMAVIINGNEDDGSNVASGRSSMRLWGLVVCHHTSSRCIPFPLRYACEFLMQAFGLQLNMELQLALQMSEKRVLRTQTLLCDMLLRDSPAGIVTQSPSIMDLVKCDGAAFLYHGKYYPLGVAPSEVQIKDVVEWLLANHADSTGLSTDSLGDAGYPGAAALGDAVCGMAVAYITKRDFLFWFRSHTAKEIKWGGAKHHPEDKDDGQRMHPRSSFQAFLEVVKSRSQPWETAEMDAIHSLQLILRDSFKESEAAMNSKVVDGVVQPCRDMAGEQGIDELGAVAREMVRLIETATVPIFAVDAGGCINGWNAKIAELTGLSVEEAMGKSLVSDLIYKENEATVNKLLSRALRGDEEKNVEVKLKTFSPELQGKAVFVVVNACSSKDYLNNIVGVCFVGQDVTSQKIVMDKFINIQGDYKAIVHSPNPLIPPIFAADENTCCLEWNMAMEKLTGWSRSEVIGKMIVGEVFGSCCMLKGPDALTKFMIVLHNAIGGQDTDKFPFPFFDRNGKFVQALLTANKRVSLEGKVIGAFCFLQIPSPELQQALAVQRRQDTECFTKAKELAYICQVIKNPLSGMRFANSLLEATDLNEDQKQLLETSVSCEKQISRIVGDMDLESIEDGSFVLKREEFFLGSVINAIVSQAMFLLRDRGLQLIRDIPEEIKSIEVFGDQIRIQQLLAEFLLSIIRYAPSQEWVEIHLSQLSKQMADGFAAIRTEFRMACPGEGLPPELVRDMFHSSRWTSPEGLGLSVCRKILKLMNGEVQYIRESERSYFLIILELPVPRKRPLSTASGSGDMMLMMPY
partner: B1 partner
B3: Phytochrome A (Arabidopsis thaliana (Mouse-ear cress)), P14712 (parent)
chain: MSGSRPTQSSEGSRRSRHSARIIAQTTVDAKLHADFEESGSSFDYSTSVRVTGPVVENQPPRSDKVTTTYLHHIQKGKLIQPFGCLLALDEKTFKVIAYSENASELLTMASHAVPSVGEHPVLGIGTDIRSLFTAPSASALQKALGFGDVSLLNPILVHCRTSAKPFYAIIHRVTGSIIIDFEPVKPYEVPMTAAGALQSYKLAAKAITRLQSLPSGSMERLCDTMVQEVFELTGYDRVMAYKFHEDDHGEVVSEVTKPGLEPYLGLHYPATDIPQAARFLFMKNKVRMIVDCNAKHARVLQDEKLSFDLTLCGSTLRAPHSCHLQYMANMDSIASLVMAVVVNEEDGEGDAPDATTQPQKRKRLWGLVVCHNTTPRFVPFPLRYACEFLAQVFAIHVNKEVELDNQMVEKNILRTQTLLCDMLMRDAPLGIVSQSPNIMDLVKCDGAALLYKDKIWKLGTTPSEFHLQEIASWLCEYHMDSTGLSTDSLHDAGFPRALSLGDSVCGMAAVRISSKDMIFWFRSHTAGEVRWGGAKHDPDDRDDARRMHPRSSFKAFLEVVKTRSLPWKDYEMDAIHSLQLILRNAFKDSETTDVNTKVIYSKLNDLKIDGIQELEAVTSEMVRLIETATVPILAVDSDGLVNGWNTKIAELTGLSVDEAIGKHFLTLVEDSSVEIVKRMLENALEGTEEQNVQFEIKTHLSRADAGPISLVVNACASRDLHENVVGVCFVAHDLTGQKTVMDKFTRIEGDYKAIIQNPNPLIPPIFGTDEFGWCTEWNPAMSKLTGLKREEVIDKMLLGEVFGTQKSCCRLKNQEAFVNLGIVLNNAVTSQDPEKVSFAFFTRGGKYVECLLCVSKKLDREGVVTGVFCFLQLASHELQQALHVQRLAERTAVKRLKALAYIKRQIRNPLSGIMFTRKMIEGTELGPEQRRILQTSALCQKQLSKILDDSDLESIIEGCLDLEMKEFTLNEVLTASTSQVMMKSNGKSVRITNETGEEVMSDTLYGDSIRLQQVLADFMLMAVNFTPSGGQLTVSASLRKDQLGRSVHLANLEIRLTHTGAGIPEFLLNQMFGTEEDVSEEGLSLMVSRKLVKLMNGDVQYLRQAGKSSFIITAELAAANK
partner: B1 partner

Variants of: B1
Conditions: with pif3_arath PIF3, O80536

| Variant | effect of a mutation on the interaction |
| --- | --- |
| E821K | decreasing interaction |
| A759V | decreasing interaction |

Variants of: B2
Conditions: with pif3_arath PIF3, O80536

| Variant | effect of a mutation on the interaction |
| --- | --- |
| A750V | decreasing interaction |
| E812K | decreasing interaction |

Variants of: B3
Conditions: with pif3_arath PIF3, O80536

| Variant | effect of a mutation on the interaction |
| --- | --- |
| G787E | decreasing interaction |
| A715V | decreasing interaction |
